The subject of data set [1] is transplanted colorectal cancer CT26. Briefly: Interferon combined with gemcitabine, transplanted colorectal cancer CT26 in mice (Example 7). It is filed as in vivo, BALB/c mice. Conditions: 110 days observation. The procedure:
In this example, a comparative study on the efficacy of PEG-mIFN-α4 intermittent administration (once every 48 hours for three consecutive times, then drug withdrawal for 144 hours; for 11 rounds), PEG-mIFN-α4 continuous administration (once every 48 hours for 55 consecutive times), PEG-mIFN-α4 in combination with gemcitabine (PEG-mIFN-α4: once every 48 hours for three consecutive times, then drug withdrawal for 240 hours, 8 rounds; gemcitabine: once a week) on transplanted colorectal cancer CT26 in mice was performed.
The anticancer agent is Gemcitabine (Jiangsu HAOSEN Pharmaceutical).
On the day when the tumor was inoculated, they were randomly divided into PEG-mIFN-α4 continuous administration group (N=24, female 12, male 12), PEG-mIFN-α4 intermittent administration group (N=24, female 12, male 12), the normal saline control group (N=24, female 12, male 12), the gemcitabine only group (N=24, female 12, male 12), and PEG-mIFN-α4 combined with gemcitabine group (N=24, female 12, male 12).
Gemcitabine was injected intraperitoneally, 60 mg/kg. […] For the PEG-mIFN-α4 intermittent administration group, PEG-mIFN-α4 was administered once every 48 hours for three consecutive times, then drug withdrawal for 144 hours; for 11 rounds. For the PEG-mIFN-α4 continuous administration group, PEG-mIFN-α4 was administered once every 48 hours. For the PEG-mIFN-α4 combined with gemcitabine group, PEG-mIFN-α4 was administered once every 48 hours for three consecutive times, then drug withdrawal for 240 hours; for 8 rounds; and gemcitabine was administered once a week. For the gemcitabine only group, gemcitabine was administered once a week. For the saline control group, equal volume of saline was administered.
Survival analysis was performed for all groups to compare the differences between groups.

Data set [2] deals with transplanted melanoma B16. The experiment in a line: Interferon combined with gemcitabine, transplanted melanoma B16 in mice (Example 8). It is filed as in vivo, C57BL/6N mice. The procedure:
In this example, a comparative study on the efficacy of PEG-mIFN-α4 intermittent administration (once every 48 hours for 3 consecutive times, then drug withdrawal for 240 hours; for 4 rounds), PEG-mIFN-α4 continuous administration (once every 48 hours for 24 consecutive times), PEG-mIFN-α4 in combination with gemcitabine (PEG-mIFN-α4: once every 48 hours for 3 consecutive times, then drug withdrawal for 240 hours, 4 rounds; gemcitabine: once a week) on transplanted melanoma B16 in mice was performed.
On the day when the tumor was inoculated, they were randomly divided into PEG-mIFN-α4 continuous administration group (N=28, female 14, male 14), PEG-mIFN-α4 intermittent administration group (N=28, female 14, male 14), the normal saline control group (N=28, female 14, male 14), the gemcitabine only group (N=28, female 14, male 14), and PEG-mIFN-α4 combined with gemcitabine group (N=28, female 14, male 14).
For the PEG-mIFN-α4 intermittent administration group, PEG-mIFN-α4 was administered once every 48 hours for 3 consecutive times, then drug withdrawal for 240 hours; for 4 rounds. For the PEG-mIFN-α4 continuous administration group, PEG-mIFN-α4 was administered once every 48 hours. For the PEG-mIFN-α4 combined with gemcitabine group, PEG-mIFN-α4 was administered once every 48 hours for 3 consecutive times, then drug withdrawal for 240 hours; for 4 rounds; and gemcitabine was administered once a week. For the gemcitabine only group, gemcitabine was administered once a week. For the saline control group, equal volume of saline was administered. Gemcitabine was injected intraperitoneally, 60 mg/kg.
SAS9.4 software was used for comparing the difference in mortality, and the statistical tests were all two-sided tests.

The test system of data set [3] is transplanted liver cancer H22. Briefly: Continuous vs intermittent administration, transplanted liver cancer H22 in mice (Example 4). It is filed as in vivo, BALB/c mice. As to conditions: continuous administration: 1 μg s.c. once every 48 hours, 21 times, Day 40 after tumor inoculation.
In data set [4] the test system is mouse fibroblast/encephalomyocarditis virus (L929/EMCV). The experiment in a line: Specific activity by mouse fibroblast/encephalomyocarditis virus (L929/EMCV) cytopathic inhibition method. It is filed as cell-based. As to conditions: stock solution; commercial mIFN-α4 (R&D) as the standard. The procedure:
The bacterial endotoxin content of the deglycosylated mIFN-α4 stock solution was determined by the Limulus reagent method as lower than 60 EU/mg. specific activity was determined as 5.4×10^8 U/mg by using the commercial mIFN-α4 (R&D, catalog number 12115-1) as the standard, and by using the mouse fibroblast/encephalomyocarditis virus (L929/EMCV) cytopathic inhibition method.
The bacterial endotoxin content of the PEG-mIFN-α4 stock solution was determined by the Limulus reagent method as lower than 15 EU/mg. Specific activity was determined as 6.1×10^6 U/mg by using the commercial mIFN-α4 (R&D, catalog number 12115-1) as the standard, and by using the mouse fibroblast/encephalomyocarditis virus (L929/EMCV) cytopathic inhibition method.

Values joined by “and” are separate entries in the source; they are usually repeats but may differ in a detail not shown here. Equal values may be shown once.

B1: PEG-mIFN-α4: deglycosylated recombinant mouse interferon α4 modified with 40 kD Y-type polyethylene glycol (YPEG-NHS); SEQ ID NO: 6 (protein)
chain: CDLPHTYNLGNKRALTVLEEMRRLPPLSCLKDRKDFGFPLEKVDNQQIQKAQAILVLRDLTQQILNLFTSKDLSATWNATLLDSFCNDLHQQLNDLKACVMQEPPLTQEDSLLAVRTYFHRITVYLRKKKHSLCAWEVIRAEVWRALSSSTNLLARLSEEKE
modifications: 40 kD Y-type PEG; deglycosylated; amino acid sequence of peginterferon murine 4
For B1, the “Mean survival period (days post tumor inoculation)” value turned out to be 53.5 days in data set [1] (continuous administration: once every 48 hours, 55 times) and 89.0 days in data set [1] (intermittent administration: 1 μg/mouse every 48 h x3, withdrawal 144 h, 11 rounds). Also, the Mortality in data set [2] (continuous administration (once every 48 hours), 46 days after tumor inoculation) came to 100%; in data set [2] (continuous administration (once every 48 hours, 24 times), Table 7, day not printed for this cell (footnotes: Day 46 / Day 48)) it was 100%; in data set [2] (intermittent administration (every 48 h x3, withdrawal 240 h, 4 rounds), 46 days after tumor inoculation) it was 39.3%; in data set [2] (intermittent administration (every 48 h x3, withdrawal 240 h, 4 rounds), 48 days after tumor inoculation) it was 46.4%. Moreover, the “Median survival period (Time after tumor inoculation, days)” value in data set [3] is 38 days and 38.0 days. The Specific activity in data set [4] was 6.1×10^6 U/mg.

For the origin of these results see patent publication US20230270824A1, “INTERFERON-BASED CANCER TREATMENT METHOD AND PHARMACEUTICAL COMPOSITION” (XIAMEN AMOYTOP BIOTECH CO., LTD., priority 2019, published 2023).
